Reference: patent publication US20260250363A1
Like-named read-outs stand apart in the source and are kept apart here.

Columns and labels:
[1] = molecular target: SARS-CoV-2 B.1.617.2 Spike Protein (R&D, Cat. #10878-CV) (SARS-CoV-2) (UniProt P0DTC2); experiment: direct ELISA on coated spike
[2] = molecular target: SARS-CoV-2 B.1.617.2 Spike Protein (R&D, Cat. #10878-CV) (SARS-CoV-2) (UniProt P0DTC2); experiment: competition ELISA: blocks biotin-ACE2 binding to coated spike
[3] = molecular target: SARS-CoV-2 B.1.617.2 Spike Protein (R&D, Cat. #10878-CV) (SARS-CoV-2) (UniProt P0DTC2); experiment: BLI (ForteBio), mAb on AHC sensor, spike in solution
[4] = molecular target: SARS-CoV-2 B.1.1.529 Spike Protein (Omicron) (SARS-CoV-2) (UniProt P0DTC2); experiment: as above
[5] = molecular target: SARS-CoV-2 B.1.617.2 Spike Protein (R&D, Cat. #10878-CV) (SARS-CoV-2) (UniProt P0DTC2); experiment: competition ELISA: blocks biotin-ACE2 binding to coated spike; remark: listed apart in the source
[6] = molecular target: SARS-CoV-2 B.1.1.529 Spike Protein (Omicron) (SARS-CoV-2) (UniProt P0DTC2); experiment: as above
[7] = molecular target: SARS-CoV-2 Spike Trimer, His Tag (BA.4/Omicron) (MALS verified) (AcroBiosystems, SPN-C5229) (SARS-CoV-2) (UniProt P0DTC2); experiment: as above
[8] = molecular target: SARS-CoV-2 Spike Trimer, His Tag (BA.5/Omicron) (MALS verified) (AcroBiosystems, SPN-C522e) (SARS-CoV-2) (UniProt P0DTC2); experiment: as above
[9] = molecular target: Recombinant SARS-CoV-2 BA.2 Spike (GCN4-IZ) His Protein, CF (R&D, 11109-CV) (SARS-CoV-2) (UniProt P0DTC2); experiment: as above

Substance | EC50 [1] | IC50 [2] | Kd [3] | Kd [4] | IC50 [5] | IC50 [6] | IC50 [7] | IC50 [8] | IC50 [9]
Casirivimab (antibody) | 0.0399 nM | 0.956 nM | 0.484 nM | 7.82 nM | 1.1 nM |  |  |  | 
Imdevimab (antibody) | 0.0671 nM |  | 1.53 nM | 456 nM |  |  |  |  | 
Bebtelovimab (antibody) |  |  |  |  |  | 6.73 nM | 4.07 nM | 3.46 nM | 3.08 nM
